Assay results reported in US20250320284A1 (AC IMMUNE, published 2025).

T1: CARD domain of human ASC (human, UniProt Q9ULZ3 107-195)
T1 construct: biotinylated in BLI; also called hCARD; human CARD
T1 sequence: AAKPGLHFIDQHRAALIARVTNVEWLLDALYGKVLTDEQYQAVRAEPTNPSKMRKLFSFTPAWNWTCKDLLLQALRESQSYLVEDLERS

T2: mouse ASC (mouse, UniProt Q9EPB4 1-193)
T2 construct: recombinant mASC in ELISA and SPR; endogenous ASC of J774.A1 cells in Western blot and immunofluorescence; also called mASC
T2 sequence: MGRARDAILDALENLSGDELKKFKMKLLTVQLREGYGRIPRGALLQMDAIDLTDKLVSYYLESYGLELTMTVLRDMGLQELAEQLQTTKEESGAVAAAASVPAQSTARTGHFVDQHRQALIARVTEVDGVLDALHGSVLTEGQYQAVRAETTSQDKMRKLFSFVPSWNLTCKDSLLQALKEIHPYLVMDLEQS


Legend:
[1] = target: T3, human ASC (apoptosis associated speck-like protein containing a caspase-recruitment domain) (human, UniProt Q9ULZ3 1-195); test: ELISA, coated hASC;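 also: antibody binding to plate-coated recombinant human ASC, read as phosphatase substrate absorbance, EC50 from four-parameter variable-slope fit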
T3 construct: recombinant hASC in ELISA and SPR; endogenous ASC (cytoplasmic or specks) in Western blot and immunofluorescence; also called hASC; PYCARD

[2] = target: T4, PYD domain of human ASC (human, UniProt Q9ULZ3 1-91, limits assumed); test: ELISA, coated hPYD;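 also: monoclonal antibody binding to plate-coated human ASC PYD measured by ELISA, with a phosphatase substrate absorbance read-out and EC50 from a variable slope curve fit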
T4 construct: biotinylated in BLI; His/MBP-tagged in the alanine ELISA; also called hPYD; human PYD
T4 sequence (Q9ULZ3 1-91 limits assumed): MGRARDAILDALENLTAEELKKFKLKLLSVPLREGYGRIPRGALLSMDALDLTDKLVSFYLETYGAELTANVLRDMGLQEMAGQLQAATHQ

[3] = target: T3, human ASC (apoptosis associated …); test: cell-based or functional assay
[4] = target: T3, human ASC (apoptosis associated …); test: cell-based or functional assay; remark: listed apart in the source
[5] = target: T3, human ASC (apoptosis associated …); test: SPR affinity mode, mAb captured;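 also: Single-cycle SPR kinetics with mAbs captured on goat anti-mouse antibody, double-referenced against blank flow cell and buffer cycle, fitted by a 1:1 kinetic model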
[6] = target: T3, human ASC (apoptosis associated …); test: SPR avidity mode, ASC immobilized;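 also: Single-cycle SPR kinetics on Biacore T200, antibodies injected at 1.2–100 nM (3-fold steps), 300 s association, 900 s dissociation, double-referenced, 1:1 kinetic model fit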
[7] = target: T4, PYD domain of human ASC; test: BLI binning on PYD, competitor 22D3A6-AB1
[8] = target: T4, PYD domain of human ASC; test: BLI binning on PYD, competitor 23E5F7-AB2
[9] = target: T4, PYD domain of human ASC; test: BLI binning on PYD, competitor 26A1G2-AB1
[10] = target: T4, PYD domain of human ASC; test: BLI binning on PYD, competitor 31F10C5-AB1
[11] = target: T4, PYD domain of human ASC; test: BLI binning on PYD, competitor 401H9B7-AB1
[12] = target: T4, PYD domain of human ASC; test: BLI binning on PYD, competitor 416E6G4-AB1
[13] = target: T4, PYD domain of human ASC; test: BLI binning on PYD, competitor 2610H7D3-AB1
[14] = target: T4, PYD domain of human ASC; test: BLI binning on PYD, competitor 2617C3A8-AB1
[15] = target: T4, PYD domain of human ASC; test: BLI binning on PYD, competitor 2626B9D3-AB1
[16] = target: T1, CARD domain of human ASC; test: sandwich ELISA on MBP-tagged protein captured by anti-MBP antibody, signal as % of hPYD-WT
[17] = target: T1, CARD domain of human ASC; test: ELISA, coated hCARD
[18] = target: T3, human ASC (apoptosis associated …); test: ELISA, coated hASC; ELISA on hASC protein
[19] = target: T3, human ASC (apoptosis associated …); test: SPR avidity mode, ASC immobilized; SPR avidity mode, hASC covalently immobilized, mAb as analyte;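 as to koff: Single-cycle SPR kinetics on Biacore T200, antibodies injected at 1.2–100 nM (3-fold steps), 300 s association, 900 s dissociation, double-referenced, 1:1 kinetic model fit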;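 as to kon: Single-cycle SPR kinetics on Biacore T200, antibodies injected at 1.2–100 nM (3-fold steps), 300 s association, 900 s dissociation, double-referenced, 1:1 kinetic model fit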
[20] = target: T3, human ASC (apoptosis associated …); test: SPR affinity mode, mAb captured; SPR affinity mode, mAb captured by Fc, hASC 2.2-180 nM in solution;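 as to koff: Single-cycle SPR kinetics with mAbs captured on goat anti-mouse antibody, double-referenced against blank flow cell and buffer cycle, fitted by a 1:1 kinetic model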
[21] = target: T2, mouse ASC; test: ELISA, coated mASC
[22] = target: T2, mouse ASC; test: cell-based or functional assay
[23] = target: T2, mouse ASC; test: cell-based or functional assay; remark: listed apart in the source
[24] = target: T2, mouse ASC; test: SPR affinity mode, mAb captured;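 also: Single-cycle SPR kinetics with mAbs captured on goat anti-mouse antibody, double-referenced against blank flow cell and buffer cycle, fitted by a 1:1 kinetic model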
[25] = target: T1, CARD domain of human ASC; test: sandwich ELISA on MBP-tagged protein captured by anti-MBP antibody, signal as % of hPYD-WT; remark: listed apart in the source
[26] = target: T3, human ASC (apoptosis associated …); test: SPR affinity mode, steady-state fit, apparent KD
[27] = target: T2, mouse ASC; test: Western blot, J774.A1 mouse macrophage lysate
[28] = target: T2, mouse ASC; test: SPR avidity mode, ASC immobilized;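 also: Single-cycle SPR kinetics on Biacore T200, antibodies injected at 1.2–100 nM (3-fold steps), 300 s association, 900 s dissociation, double-referenced, 1:1 kinetic model fit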
[29] = target: T2, mouse ASC; test: ELISA, coated mASC; ELISA on mASC protein
[30] = target: T2, mouse ASC; test: SPR affinity mode, mAb captured; SPR affinity mode, mAb captured by Fc, mASC in solution;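 as to KD: Single-cycle SPR kinetics with mAbs captured on goat anti-mouse antibody, double-referenced against blank flow cell and buffer cycle, fitted by a 1:1 kinetic model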
[31] = target: T2, mouse ASC; test: SPR avidity mode, ASC immobilized; SPR avidity mode, mASC covalently immobilized, mAb as analyte

Binder	EC50 [1]	EC50 [2]	Human ASC polymerization assay, IC50 [3]	Kd [5]	koff [5]	kon [5]	Kd [6]	koff [6]	kon [6]	EC50 [21]	Kd [24]	koff [24]	also measured
ACI-8016-203B12C3-AB1 (antibody, V domains shown) VH: QVQLKQSGPGLVQPSQSLSITCKVSDFSLSHYGVHWVRQSPGKGLEWLGVIWSGGTTEYNEAFISRLTISKDNSKSQILFRMNSLQPADTAIYYCARKGDFYGDYFDYWGQGTTLTVSS VL: DIQMTQTSSSLSASLGDRVTISCRASQDISNYLNWYQQRPDGTVKLLIYYTSKVHSGVPSRFSGSGSGTDFSLTISNLEQEDFATYYCQQGNTRPFTFGGGTKLEIK													binding result [2]: no binding; EC50 [17]: 0.067 nM; EC50 [18]: 0.1 nM; Kd [19]: 10.2 nM; Kd [20]: 42 nM
ACI-8016-2610H7D3-AB1 (antibody, V domains shown) VH: QVQLQQSGVELARPGASVKLSCKASGFSFTSYGISWVKQKTGQGLEWIGQIYLRSSNTYYSEKFKDRATLTADKSSSTVYMELRSLTSEDSAVYFCARYYGSSSDYWGQGTTLTVSS VL: DIQMNQSPSSLSASLGDTITINCHASQNINVWLSWYQQKPGNIPKVLINQASNLQTDVPTRFSGSGSGTDFKLIISRLQSEDIATYYCQQGQSYPWTFGGGTKLEIK	0.19 nM	0.16 nM	10.1 nM	0.27 nM	0.000201 s⁻¹	747000 M⁻¹ s⁻¹				0.27 nM	0.41 nM	0.000339 s⁻¹	Mouse ASC polymerization assay, IC50 [22]: 60.4 nM; IL-1β release, human monocytic cell line, IC50 [4]: 25.2 nM; % IL-1β inhibition, mouse primary microglia, 420 nM mAb [23]: 87.3%; kon [24]: 831000 M⁻¹ s⁻¹; normalized binding response [7]: 2%; normalized binding response [8]: 0%; normalized binding response [9]: 1%; normalized binding response [10]: 2%; normalized binding response [11]: 73%; normalized binding response [12]: 6%; normalized binding response [13]: 1%; normalized binding response [14]: 0%; normalized binding response [15]: 80%; binding result [25]: no binding
ACI-8016-23E5F7-AB1 (antibody, V domains shown, also called 936.23E5F7) VH: QVQLQQSEAELARPGASVKLSCKASGYTFTSYGIFWVKQRTGQGLEWIGEIYPRSGNTYYNENFRDKATLTADKSSSTAYMELRSLTSEDSAVYFCARQRDDYWGQGTTLTVSS VL: QIVLTQSPAIMSASPGEKVTITCSVSSSVSYMYWFQQKPGTSPKVWIYSTSNLASGVPARFSGRGSGTSYSLTISRMEAEDAATYYCQQRSSYPFTFGSGTKLEIK	0.12 nM	0.13 nM	5.8 nM							0.15 nM	10.3 nM	0.00264 s⁻¹	binding result [17]: no binding; Mouse ASC polymerization assay, IC50 [22]: 21 nM; % IL-1β inhibition, mouse primary microglia, 420 nM mAb [23]: 69.4%; kon [24]: 261000 M⁻¹ s⁻¹; Kd [26]: 27.1 nM
ACI-8016-416E6G4-AB1 (antibody, V domains shown) VH: QVQLKQSGPGLVQPSQSLSITCTVSGISLSSYGLHWVRQSPGKGLEWLGVIWSGGNTDYSATFISRLSISKDNSKSQVFFKMDSLQVDDTAIYYCARNEVWGQGTSVTVSS VL: not shown	0.07 nM	0.07 nM		14.9 nM	0.0025 s⁻¹	280000 M⁻¹ s⁻¹	0.85 nM	2.7e-05 s⁻¹	39000 M⁻¹ s⁻¹		14.5 nM	0.00053 s⁻¹	binding result [17]: no binding; EC50 [29]: 0.07 nM; kon [30]: 34000 M⁻¹ s⁻¹; Kd [31]: 4.88 nM; koff [31]: 0.00013 s⁻¹; kon [31]: 35000 M⁻¹ s⁻¹

Second part, led by results:

EC50 [1]	EC50 [2]	Human ASC polymerization assay, IC50 [3]	Kd [5]	koff [5]	kon [5]	Kd [6]	koff [6]	kon [6]	EC50 [21]	Kd [24]	koff [24]	Binder	also measured
0.1 nM	0.06 nM	3.1 nM	< 0.01 nM	< 1e-05 s⁻¹	96000 M⁻¹ s⁻¹	< 0.01 nM	2.3e-07 s⁻¹	74000 M⁻¹ s⁻¹				ACI-8016-401H9B7-AB1 (antibody, V domains shown) VH: QIQLVQSGPELKKPGETVKISCKASGYTFTKYGMNWVKQAPGKGLKRMGWINTYTGEPTYSDDFKGRFAFSLETSASTAYLQINNLKNDDTATYFCARLGYANSFDSWGQGTTLTVSS VL: DIQMTQSPASLSATVGETVTITCRASENIYTYLAWYQQKQGKSPQLLVHNANTLVEGVPSRFSGSGSGTQFSLKINSLEPEDFGNYYCQYHYGSPYTFGGGTKLEIK	IL-1β release, human monocytic cell line, IC50 [4]: 6.94 nM; normalized binding response [7]: 90%; normalized binding response [8]: 83%; normalized binding response [9]: 24%; normalized binding response [10]: 95%; normalized binding response [11]: 3%; normalized binding response [12]: 47%; normalized binding response [13]: 108%; normalized binding response [14]: 112%; normalized binding response [15]: 3%; binding result [16]: no binding
0.05 nM			0.13 nM	2.2e-05 s⁻¹	160000 M⁻¹ s⁻¹	0.01 nM	1.2e-06 s⁻¹	92000 M⁻¹ s⁻¹				ACI-8016-413G10A5-AB1 (antibody, V domains shown) VH: QVQLKESGPGLVAPSQSLSITCTVSGFSLTSYGVHWVRQPPGKGLEWLGVIWAGGSTNYNSALMSRLSISKDNSKSQVFLKMNSLQTADTAMYYCARWDYVNSYEAMDYWGQGTSVTVSS VL: DVVMTQTPLSLPVSLGDQASISCRSSQSLVHSNGNTYLHWYLQKPGQSPKLLIYKVSNRFSGVPDRFSGSGSGTDFTLKISRVEAEDLGVYFCSQSTHVPYTFGGGTKLEIK	binding result [2]: no binding; EC50 [17]: 0.06 nM; binding result [27]: no binding
0.1 nM						0.91 nM	8e-05 s⁻¹	88000 M⁻¹ s⁻¹	0.2 nM			ACI-8019-2314F6H11-AB1 (antibody, V domains shown) VH: QVQVQQSGADLARPGASVKLSCKASGYTFTNYGINWVKQRTGQGLEWIGEIYPKNIDIYYNEKFKGKATLTADKSSSTAYMELRSLTSEDSAVYFCGRSSFGFSGNYAMDYWGQGTSVTVSS VL: DVVMTQTPLSLPVSLGDQASISCRSSQNLIHSNGITYLHWYLQKPGQSPKLLIYKVSNRFSGVPHRFSGSGSGTDFTLKISRVEAEDLGVYFCSQSTHVPWTFGGGTKLEIK	Kd [28]: 16.1 nM
